The text below walks through data of patent publication US20070053837A1, “Radiopharmaceuticals for cancer diagnosis and treatment” (priority 2003, published 2007).

Square brackets hold non-standard residues; d marks the D form. Peptide text beside a SMILES is read from it. * marks the point of attachment. DOTA = O=C(O)CN1CCN(CC(=O)O)CCN(CC(=O)*)CCN(CC(=O)O)CC1; Met(O2) = CS(=O)(=O)CC[C@H](N)C(=O)O; 2Thi = N[C@@H](Cc1cccs1)C(=O)O; Sar = CNCC(=O)O

The test system of data set [1] is gliomas / glioblastoma. The arrangement: species or system patients. The conditions noted are these: in vivo. The text has this:
As a third group which can serve as a control, 5 advanced cases that had been treated by the so called standard regimens with virtually no therapeutic option left anymore were included. […] In cases with biopsy alone, average survival is around 9 weeks without further treatment. In the 4 cases of this pilot study, all patients survived at least 2 months and up to 9 months, and In a special case even show a remarkable partial response. In the resected 5 cases followed by Internal radionuclide conjugate brachytherapy, overall survival appeared to be longer than expected which is in the range between 14 and 26 months. According to the only large randomized trial of 1970s which serves as historical control, resection alone would have led to an expected survival of about 4 months, and resection plus an external beam radiotherapy to a mean survival of about 9.5 months. […] This interpretation of the data is further supported by an impressive partial response (case W. […] A key question in local glioma therapy is whether one can achieve to reach infiltrating tumor cell nests or satellite lesion. […] The presently used dissipative Y-90 (range 3-6 mm) is more suitable for bulky lesions.

The format of data set [2] is in vitro ADME, patients. As for the experimental part: Further stability test by in vitro experiments incubating ^90Y-DOTAGA-Substance P in different CSF (cerebrospinal fluid) aspirates from patients are executed.
The target of data set [3] is T1, NK1 receptors (Homo sapiens, UniProt P25103).
T1 construct: In vitro autoradiography is performed with tumor tissue expressing NK1 receptors; from tissue
Kind of data set: Binding affinity to NK-1 receptors, in vitro autoradiography, displacement of ^125I-Bolton-Hunter-SP. The conditions noted are these: tumor tissue expressing NK1 receptors; radioligand ^125I-Bolton-Hunter-SP; concentrations 0.1 nM to 1'000 nM; read-out: IC50 ± SEM (mean value). As for the experimental part:
Example C4 Binding Affinity to NK-1 Receptors In vitro autoradiography is performed with tumor tissue expressing NK1 receptors. The used radioligand is ^125I-Bolton-Hunter-SP. Displacement experiments are performed on successive sections with the various compounds listed in the Table given in concentrations ranging from 0.1 nM to 1'000 nM.

T1 sequence (P25103 whole entry): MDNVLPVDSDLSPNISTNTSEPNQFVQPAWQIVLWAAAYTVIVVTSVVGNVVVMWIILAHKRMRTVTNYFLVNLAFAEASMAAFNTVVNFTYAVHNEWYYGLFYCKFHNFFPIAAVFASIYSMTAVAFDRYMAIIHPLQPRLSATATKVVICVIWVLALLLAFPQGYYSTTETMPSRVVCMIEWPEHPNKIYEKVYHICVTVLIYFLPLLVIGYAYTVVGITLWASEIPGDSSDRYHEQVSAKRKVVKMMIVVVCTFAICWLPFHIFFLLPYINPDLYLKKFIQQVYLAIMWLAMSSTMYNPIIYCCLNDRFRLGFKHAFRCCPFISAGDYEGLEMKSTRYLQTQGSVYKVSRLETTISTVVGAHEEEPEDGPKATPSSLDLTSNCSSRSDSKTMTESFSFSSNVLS

Regarding `CSCC[C@H](NC(=O)[C@H](CC(C)C)NC(=O)CNC(=O)[C@H](Cc1ccccc1)NC(=O)[C@H](Cc1ccccc1)NC(=O)[C@H](CCC(N)=O)NC(=O)[C@H](CCC(N)=O)NC(=O)[C@@H]1CCCN1C(=O)[C@H](CCCCN)NC(=O)[C@@H]1CCCN1C(=O)[C@H](CCCNC(=N)N)NC(=O)CCC(C(=O)O)N1CCN(CC(=O)O)CCN(CC(=O)O)CCN(CC(=O)O)CC1)C(N)=O` (single isomer, unassigned) [^111In-DOTAGA-Substance P, ^111In-DOTAGA-Arg^1-Pro^2-Lys^3-Pro^4-Gln^5-Gln^6-Phe^7-Phe^8-Gly^9-Leu^10-Met^11-NH2, metal not drawn], the “diffusibility: distance of satellite lesion that becomes visible” value in data set [1] worked out at 4 cm.

Regarding `CSCC[C@H](NC(=O)[C@H](CC(C)C)NC(=O)CNC(=O)[C@H](Cc1ccccc1)NC(=O)[C@H](Cc1ccccc1)NC(=O)[C@H](CCC(N)=O)NC(=O)[C@H](CCC(N)=O)NC(=O)[C@@H]1CCCN1C(=O)[C@H](CCCCN)NC(=O)[C@@H]1CCCN1C(=O)[C@H](CCCNC(=N)N)NC(=O)CCC(C(=O)O)N1CCN(CC(=O)O)CCN(CC(=O)O)CCN(CC(=O)O)CC1)C(N)=O` (stereo partly drawn) [^90Y-DOTAGA-Substance P, ^90Y-DOTAGA-Arg^1-Pro^2-Lys^3-Pro^4-Gln^5-Gln^6-Phe^7-Phe^8-Gly^9-Leu^10-Met^11-NH2, metal not drawn], in data set [2], the “stability in CSF aspirate” value is “stable for several hours” and the “time to complete degradation in CSF aspirate” value was at most 5 h. As usually defined, the IC50 is the point on the concentration scale where inhibition reaches its midpoint. `CC(C)C[C@H](NC(=O)CNC(=O)[C@H](Cc1cccs1)NC(=O)[C@H](Cc1ccccc1)NC(=O)[C@H](CCC(N)=O)NC(=O)[C@H](CCC(N)=O)NC(=O)[C@@H]1CCCN1C(=O)[C@H](CCCCN)NC(=O)[C@@H]1CCCN1C(=O)[C@H](CCCNC(=N)N)NC(=O)CN1CCN(CC(=O)O)CCN(CC(=O)O)CCN(CC(=O)O)CC1)C(=O)N[C@@H](CCS(C)(=O)=O)C(N)=O` [^111In-DOTA-Arg^1-Pro^2-Lys^3-Pro^4-Gln^5-Gln^6Phe^7-Thi^8-Gly^9-Leu^10-Met(O2)^11—NH2, metal not drawn] ({DOTA}-RPKPQQF[2Thi]GL[Met(O2)]-NH2): the IC50 in data set [3] turned out to be 0.78 ± 0.03 nM. As for `CSCC[C@H](NC(=O)[C@H](CC(C)C)NC(=O)CNC(=O)[C@H](Cc1cccs1)NC(=O)[C@H](Cc1cccs1)NC(=O)[C@H](CCC(N)=O)NC(=O)[C@H](CCC(N)=O)NC(=O)[C@@H]1CCCN1C(=O)[C@H](CCCCN)NC(=O)[C@@H]1CCCN1C(=O)[C@H](CCCNC(=N)N)NC(=O)CN1CCN(CC(=O)O)CCN(CC(=O)O)CCN(CC(=O)O)CC1)C(N)=O` [^111In-DOTA-[Thi^7, Thi^8]-Substance P, ^111In-DOTA-Arg^1-Pro^2-Lys^3-Pro^4-Gln^5-Gln^6-Thi^7-Thi^8-Gly^9-Leu^10-Met^11-NH2, metal not drawn] ({DOTA}-RPKPQQ[2Thi][2Thi]GLM-NH2), the IC50 in data set [3] is 7.7 ± 0.7 nM.

For the compound `CSCC[C@H](NC(=O)[C@H](CC(C)C)NC(=O)CN(C)C(=O)[C@H](Cc1cccs1)NC(=O)[C@H](Cc1ccccc1)NC(=O)[C@H](CCC(N)=O)NC(=O)[C@H](CCC(N)=O)NC(=O)[C@@H]1CCCN1C(=O)[C@H](CCCCN)NC(=O)[C@@H]1CCCN1C(=O)[C@H](CCCNC(=N)N)NC(=O)CN1CCN(CC(=O)O)CCN(CC(=O)O)CCN(CC(=O)O)CC1)C(N)=O` [^111In-DOTA-[Thi^8, Sar^9]-Substance P, ^111In-DOTA-Arg^1-Pro^2-Lys^3-Pro^4-Gln^5-Gln^6-Phe^7-Thi^8-Sar^9-Leu^10-Met^11-NH2, metal not drawn] ({DOTA}-RPKPQQF[2Thi][Sar]LM-NH2), the IC50 in data set [3] was 3.4 ± 0.4 nM.
